The target in one experiment is HLA-B*51:01. As to the kind of experiment: IEDB peptide-MHC binding, purified MHC/competitive/radioactivity; filed as Kd, often an IC50 or EC50 that approximates it; ≥ and ≤ were set here for values at or beyond the usual limits of such assays.
Another experiment deals with HLA-B*53:01. The experiment is described as above. The conditions noted are these: source organism: Dengue virus 2 Jamaica/1409/1983.
The next experiment concerns the target HLA-B*18:01. Nature of the experiment: IEDB peptide-MHC binding, purified MHC/direct/fluorescence; filed as Kd, often an IC50 or EC50 that approximates it; ≥ and ≤ were set here for values at or beyond the usual limits of such assays.
Another experiment has as its target HLA-B*40:01. Described as above.
In another experiment the target is HLA-B*44:02. The description is as above.
The target in a further experiment is HLA-A*68:02. Nature of the experiment: IEDB peptide-MHC binding, purified MHC/competitive/radioactivity; filed as Kd, often an IC50 or EC50 that approximates it; ≥ and ≤ were set here for values at or beyond the usual limits of such assays.
The target of another experiment is HLA-A*02:06. Described as above.
Another experiment deals with HLA-A*24:02. As to the kind of experiment: IEDB peptide-MHC binding, purified MHC/competitive/fluorescence; ≥ and ≤ were set here for values at or beyond the usual limits of such assays. The conditions noted are these: source organism: Sudan ebolavirus.
In experiment [1] the target is HLA-A*26:01. As to the kind of experiment: IEDB peptide-MHC binding, purified MHC/competitive/radioactivity; filed as Kd, often an IC50 or EC50 that approximates it; ≥ and ≤ were set here for values at or beyond the usual limits of such assays.
Experiment [2] concerns the target HLA-B*08:01. The description is as above. The conditions noted are these: source organism: Dengue virus 2 Jamaica/1409/1983.
The target in a further experiment is HLA-A*01:01. Nature of the experiment: IEDB peptide-MHC binding, purified MHC/direct/fluorescence; filed as Kd, often an IC50 or EC50 that approximates it; ≥ and ≤ were set here for values at or beyond the usual limits of such assays.
The target of the next experiment is HLA-A*02:01. Described as above.
The next experiment deals with HLA-A*03:01. The description is as above.
A further experiment deals with HLA-A*11:01. The experiment is described as above.
In experiment [3] the target is HLA-A*26:01. The experiment is described as above.
The target of the next experiment is HLA-A*31:01. The description is as above.
The next experiment has as its target HLA-A*69:01. The description is as above.
The next experiment concerns the target HLA-B*07:02. The description is as above.
Experiment [4] has as its target HLA-B*08:01. The experiment is described as above.
The target of the next experiment is HLA-B*15:01. Described as above.
The target in a further experiment is HLA-B*27:05. The experiment is described as above.
In a further experiment the target is HLA-B*58:01. Described as above.
Where [5] appears, read: source organism: Dengue virus 2 Jamaica/1409/1983.
Where [6] appears, read: source organism: Influenza A virus (A/Duck/Shantou/2144/00(H9N2)).
The mark [7] stands for this setting: source organism: West Nile virus.
Where [8] appears, read: source organism: Dengue virus 4 Philippines/H241/1956.
Where [9] appears, read: source organism: Orthohantavirus hantanense.
The mark [10] stands for this setting: source organism: Dengue virus 3 Martinique/1243/1999.
The mark [11] stands for this setting: source organism: Dengue virus 1 Brazil/97-11/1997.
The mark [12] stands for this setting: source organism: Escherichia coli O157:H7.
The mark [13] stands for this setting: source organism: Pseudomonas aeruginosa UCBPP-PA14.

SPCKIPFEI: the Kd is at least 47.7 µM in the experiment with HLA-B*51:01 (setting [5]) and 1.28 µM with HLA-B*53:01.

Consider GEETIEERF, for which the dissociation constant (Kd) is 3.38 µM with HLA-B*18:01 (setting [6]), 0.134 µM in the experiment with HLA-B*40:01 (setting [6]) and at least 20 µM with HLA-B*44:02 (setting [6]).

The sequence REDIWCGSL displayed a Kd with HLA-B*18:01 (setting [7]) of 7.08 µM.

ETWMSSEGA: in the experiment with HLA-A*68:02 (setting [5]), the Kd was 0.00286 µM.

As for DLKDQIAQL, the dissociation constant Kd with HLA-A*02:06 (source organism: Homo sapiens) was at least 78.7 µM; in the experiment with HLA-A*68:02 (source organism: Homo sapiens), 0.826 µM.

Turning to NEVEVITKL, the Kd in the experiment with HLA-B*18:01 (setting [7]) came out at 0.0063 µM.

Regarding MAVLFVVTLI, in the experiment with HLA-A*68:02 (setting [8]), the Kd turned out to be 0.533 µM.

As for AEAAGCSMI, the values for the dissociation constant Kd in the experiment with HLA-B*18:01 (setting [9]) and with HLA-B*40:01 (setting [9]) were at least 20 µM and 0.0045 µM, respectively.

Regarding WVMKIGIGV, the dissociation constant Kd in the experiment with HLA-A*02:06 (setting [10]) came to 0.00138 µM; in the experiment with HLA-A*68:02 (setting [10]) it was 0.00527 µM.

As to IPPTAGILA, the Kd in the experiment with HLA-B*51:01 (setting [11]) turned out to be 5.55 µM.

In the experiment with HLA-A*24:02, NADIGEWAF came in with an IC50 of 55.5 µM.

Take HTIENTTANI: the Kd with HLA-A*26:01 [1] (setting [11]) is 2.07 µM; with HLA-A*68:02 (setting [11]) it was 0.00175 µM.

For the sequence LVMLLVHYA, the dissociation constant (Kd) in the experiment with HLA-A*68:02 (setting [8]) stood at 0.369 µM.

As to VAFLRFLTI, the dissociation constant Kd with HLA-B*08:01 [2] turned out to be 0.0104 µM; with HLA-B*51:01 (setting [5]) it was 0.00189 µM.

On to RFDEAIINY, for which the dissociation constant Kd in the experiment with HLA-A*01:01 (setting [12]), in the experiment with HLA-A*02:01 (setting [12]), with HLA-A*03:01 (setting [12]), in the experiment with HLA-A*11:01 (setting [12]), with HLA-A*26:01 [3] (setting [12]) and in the experiment with HLA-A*31:01 (setting [12]) was at least 20 µM each time. The Kd was at least 20 µM with HLA-A*69:01 (setting [12]); at least 20 µM in the experiment with HLA-B*07:02 (setting [12]); at least 20 µM with HLA-B*08:01 [4] (setting [12]); at least 20 µM in the experiment with HLA-B*15:01 (setting [12]); at least 20 µM with HLA-B*27:05 (setting [12]); at least 10 µM in the experiment with HLA-B*40:01 (setting [12]). Besides, the Kd with HLA-B*44:02 (setting [12]) and with HLA-B*58:01 (setting [12]) was at least 20 µM throughout.

With ELTCLNEASV, the Kd in the experiment with HLA-A*68:02 (source organism: Homo sapiens) came out at 0.0688 µM.

Turning to ETQGVTAEI, the figures for the Kd with HLA-A*26:01 [1] (setting [10]) and with HLA-A*68:02 (setting [10]) were 0.282 µM and 0.00296 µM, respectively.

Take KPWDVVPMV: in the experiment with HLA-B*51:01 (setting [5]), the equilibrium dissociation constant (Kd) turned out to be 1.44 µM.

In the experiment with HLA-B*18:01 (source organism: Vibrio vulnificus YJ016), VEAGLIDTY came in with a Kd of at least 20 µM.

In the case of GLGGDASAY, the dissociation constant Kd with HLA-A*01:01 (setting [13]), with HLA-A*02:01 (setting [13]), with HLA-A*03:01 (setting [13]), with HLA-A*11:01 (setting [13]), in the experiment with HLA-A*26:01 [3] (setting [13]) and with HLA-A*31:01 (setting [13]) was at least 20 µM throughout. Further, the Kd with HLA-A*69:01 (setting [13]) is at least 20 µM; with HLA-B*07:02 (setting [13]), at least 20 µM; with HLA-B*08:01 [4] (setting [13]) it was at least 20 µM; in the experiment with HLA-B*15:01 (source organism: Pseudomonas aeruginosa) it was 0.3 µM; in the experiment with HLA-B*27:05 (setting [13]) it was at least 20 µM; with HLA-B*40:01 (setting [13]), at least 20 µM. In the experiment with HLA-B*58:01 (setting [13]), the Kd is at least 20 µM.

On to LGLMALKLI, for which the equilibrium dissociation constant (Kd) in the experiment with HLA-B*51:01 (setting [10]) turned out to be 8.37 µM.

In the case of SMYQLMITI, the equilibrium dissociation constant (Kd) is at least 20 µM with HLA-A*01:01 (setting [12]); 0.827 µM with HLA-A*02:01 (setting [12]); at least 20 µM with HLA-A*03:01 (setting [12]); at least 20 µM in the experiment with HLA-B*07:02 (setting [12]); at least 20 µM in the experiment with HLA-B*15:01 (setting [12]); at least 20 µM with HLA-B*27:05 (setting [12]). The Kd with HLA-B*40:01 (setting [12]) was at least 10 µM; in the experiment with HLA-B*44:02 (setting [12]) it was at least 20 µM; in the experiment with HLA-B*58:01 (setting [12]), at least 20 µM.

For orientation: Kd means the equilibrium constant for the complex coming apart. The IC50 is the concentration at which inhibition is half-maximal. A high value points to weaker potency in that assay.

The record behind these values is the Immune Epitope Database (IEDB).
